This is an account of results in US20080193457A1, “Ra Antigenic Peptides” (priority 2003, published 2008).

Sequences and labels used below:
B1: HPX (351-365) (peptide)
peptide: TPHGIILDSVDAAFI
notes: Synthetic peptide in the in vitro assay; also called Hemopexin (351-365)
B2: PSMD8 (218-233) (peptide)
peptide: GPNNYYSFASQQQKPE
notes: Found as eluted natural peptide and tested as synthetic peptide
B3: GILT (192-205) (peptide)
peptide: GDRGMQLMHANAQR
notes: Found as eluted natural peptide and tested as synthetic peptide; also called Interferon-gamma-inducible lysosomal thiol reductase (192-205)
B4: IL-1R (79-94) (peptide)
peptide: EKLWFVPAKVEDSGHY
notes: Found as eluted natural peptide and tested as synthetic peptide; also called Interleukin-1 receptor (79-94)
B5: CYRB (359-375) (peptide)
peptide: ETMKMRYEHIDHTFEIQ
notes: as for B2

One experiment concerns the target HLA-DRB1*0401 (Homo sapiens, UniProt P01903+P01911, A100K/A169T/F76Y/I96L/K127E/L162R/M171V/N62H/P40V/Q125Y/R42H/S133A/S149N/S66Y/V115G/V209L/W38E).
Assay: not given
Conditions: reference peptides, literature (Table 1 footnote h); cited from earlier work.
For the molecule “M. tuberculosis Hsp65 (3-13) (KTIAYDEEARR; UniProt P9WPE7 3-13, looked up, fragment)”, the “HLA-DRB1*0401 binder” value is on record as “weak HLA-DRB1*0401 binder”.

A further experiment addresses T1, HLA-DR4 molecules (HLA-DRB1*0401), purified, detergent-solubilized (human).
T1 construct: mature; The text says HLA-DR4
In words: in vitro competition binding assay: purified HLA-DR4, biotinylated HA(307-319) reporter, synthetic competitor peptide.
Conditions: not given
On to B1, for which the binding result is given as “binds”. Still for that read-out and setting: for B2 the value was “binds”. Still for that read-out and setting: for GPHDVHVQIETSPPARN (Synthetic peptide in the in vitro assay) [Fig1 (293-309)] the value was “binds”; for B3, “binds”. Still for that read-out and setting: for B4 the value was “binds”; for NVVFVIDKSGSMSG (Synthetic peptide in the in vitro assay) [ITIH4 (274-287)], “binds”; for B5, “binds”. Regarding GSREIKSQQSEVTR (Synthetic peptide in the in vitro assay) [SH3BGRL3 (13-26)], the binding result is “binds”.
